For one test, the target named is T1, mouse P2X7 (mouse) (UniProt Q9Z1M0).
T1 sequence: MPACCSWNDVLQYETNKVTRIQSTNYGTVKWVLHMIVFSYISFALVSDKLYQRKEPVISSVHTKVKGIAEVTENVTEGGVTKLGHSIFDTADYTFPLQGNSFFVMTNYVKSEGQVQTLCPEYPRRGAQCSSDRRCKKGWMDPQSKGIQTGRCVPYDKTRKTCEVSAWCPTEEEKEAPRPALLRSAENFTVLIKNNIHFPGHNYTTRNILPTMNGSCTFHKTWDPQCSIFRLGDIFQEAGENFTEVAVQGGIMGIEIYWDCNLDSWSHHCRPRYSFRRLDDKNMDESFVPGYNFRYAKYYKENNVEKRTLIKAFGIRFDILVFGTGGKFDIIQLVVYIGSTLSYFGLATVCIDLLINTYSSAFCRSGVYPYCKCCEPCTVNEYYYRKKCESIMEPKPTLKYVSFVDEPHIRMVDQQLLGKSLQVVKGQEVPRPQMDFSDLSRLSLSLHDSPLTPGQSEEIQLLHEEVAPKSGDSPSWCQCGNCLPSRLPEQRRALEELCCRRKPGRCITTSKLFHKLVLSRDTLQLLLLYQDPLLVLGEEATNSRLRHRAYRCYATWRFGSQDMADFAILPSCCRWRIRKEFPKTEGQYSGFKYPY
The experiment in a line: cell-based or functional assay.

For test [1], the target named is plasma-derived HBsAg particles (Biodesign) (hepatitis B virus). Kind of test: SPR (Biacore), periplasmic extract over immobilised plasma-derived HBsAg particles, 1:1 dissociation model. A general note: In SPR one partner is held on a chip, and binding of the other changes the refractive index at the surface.

B1: 8G11-35GS-8G11 (VHH)
chain: EVQLVESGGGLVQAGGSLRLSCAASGNFFRVNTMAWYRQAPGKQRELVADITRGDRTNYADTVNGRFTISRDNVRNTVYLQMNGLRPEDTAAYYCYAVIELGVLEPRDYWGQGTQVTVSSGGGGSGGGGSGGGGSGGGGSGGGGSGGGGSGGGGSEVQLVESGGGLVQAGGSLRLSCAASGNFFRVNTMAWYRQAPGKQRELVADITRGDRTNYADTVNGRFTISRDNVRNTVYLQMNGLRPEDTAAYYCYAVIELGVLEPRDYWGQGTQVTVSS
In the case of B1, in the test with mouse P2X7 (mouse), the IC50, CD62L shedding at 20 µM NAD came to 0.52 nM; the IC50, CD62L shedding at 100 µM ATP came out at 0.2 nM; the potency increase vs. monovalent 8G11 (ATP) is 84 fold; the potency increase vs. monovalent 8G11 (NAD) was 146 fold.

B2: 13A7-35GS-13A7 (VHH)
chain: EVQLVESGGGLVQPGESLRLSCTASRFMLDYYDIGWFRQAPGKEREGVSCRFTNDGSTAYADSVKGRFTISRDIVKHTVYLQMNSLQPEDTAVYYCAAGPLTKRRQCVPGDFSMDFWGEGTLVTVSSGGGGSGGGGSGGGGSGGGGSGGGGSGGGGSGGGGSEVQLVESGGGLVQPGESLRLSCTASRFMLDYYDIGWFRQAPGKEREGVSCRFTNDGSTAYADSVKGRFTISRDIVKHTVYLQMNSLQPEDTAVYYCAAGPLTKRRQCVPGDFSMDFWGEGTLVTVSS
In the test with mouse P2X7 (mouse), B2 showed an IC50, CD62L shedding at 20 µM NAD of 0.3 nM; an IC50, CD62L shedding at 100 µM ATP of 0.1 nM; a potency increase vs. monovalent 13A7 (ATP) of 9 fold; a potency increase vs. monovalent 13A7 (NAD) of 23 fold.

B3: 14D5-35GS-14D5 (VHH)
chain: EVQLVESGGGLVQAGGSLRLSCAASGSPISSYAMGWYRQAPGKPRELVARIYTGGTAWYEDSVKGRFTISRDNAQNTVYLQMNSLKSEDTAVYYCHGRVRYDYWGQGTQVTVSSGGGGSGGGGSGGGGSGGGGSGGGGSGGGGSGGGGSEVQLVESGGGLVQAGGSLRLSCAASGSPISSYAMGWYRQAPGKPRELVARIYTGGTAWYEDSVKGRFTISRDNAQNTVYLQMNSLKSEDTAVYYCHGRVRYDYWGQGTQVTVSS
B3: in the test with mouse P2X7 (mouse), the EC50, enhancement of CD62L-ectodomain shedding at 1.5 µM NAD was determined as 0.06 nM; the EC50, enhancement of CD62L-ectodomain shedding at 33 µM ATP stood at 0.1 nM; the increase in potency vs. monovalent 14D5 (ATP-induced shedding) is 220 fold; the increase in potency vs. monovalent 14D5 (NAD-induced shedding) amounted to 40 fold.

B4: HBSAGPMP2E7 (VHH)
VHH: EVQLVESGGGLLQAGGSLRLSCAASERAFIIYGKAWFRQAPGKEREFVAGINWNGGDLHYADSVKGRFTISRDNTNNVVYLQMNSLKSEDTAVYYCAVRRGTAYETDVSSYEWGTQVTVSS
In general, koff refers to the rate constant with which the complex falls apart. For the molecule B4, the koff in test [1] came out at 0.00088 s⁻¹.

B5: HBSAGPMP2E12 (VHH)
VHH: EVQLVESGGGLVQAGGSLRLSCAASGRSISEYAMGWFRQAPGQEREFVASISTSGGSTTYADSVKGRFIISRDNAKNTVYLQMNSLKPEDTAVYYCARYNGWMYYAGTMGVHFGQGTQVTVSS
For B5, the off-rate (koff) in test [1] amounted to 0.0013 s⁻¹.

The values above are taken from patent US20160264664A1.
